From PMC6327041, “Histone H3 binding to the PHD1 domain of histone demethylase KDM5A enables active site remodeling” (Nature Communications, 2019)

Legend:
[1] = target: C-terminally 5-carboxyfluorescein (5-FAM) conjugated Ac-H3K4me3 31mer peptide; experiment: fluorescence polarisation; direct FP: Ac-H3K4me3-fluorescein 31mer with varying KDM5A_(1-797); 400 µM MnCl2 and 400 µM N-OG; with 350 µM H3 10mer effector peptide; Kd read at 1 min (the signal is stable for at least 1 h)
[2] = target: C-terminally 5-carboxyfluorescein (5-FAM) conjugated Ac-H3K4me3 31mer peptide; experiment: fluorescence polarisation; direct FP: Ac-H3K4me3-fluorescein 31mer with varying KDM5A_(1-797); 400 µM MnCl2 and 400 µM N-OG; no effector peptide; Kd read at 1 min (the signal decreases over time)
[3] = substrate: C[C@H](N)C(=O)N[C@@H](CCCNC(=N)N)C(=O)N[C@H](C(=O)N[C@@H](CCCC[N+](C)(C)C)C(=O)N[C@@H](CCC(N)=O)C(=O)N[C@H](C(=O)N[C@@H](C)C(=O)N[C@@H](CCCNC(=N)N)C(=O)N[C@@H](CCCCN)C(=O)N[C@@H](CO)C(=O)O)[C@@H](C)O)[C@@H](C)O; experiment: KDM5A demethylation, FDH-coupled formaldehyde release assay; assay type: biochemical, human; conditions: other: H3K4me3 10mer as substrate (Figure S3, response to reviewers)
Method: WT KDM5A1-797 was expressed in Sf21 cells following Invitrogen Bac-to-Bac baculovirus expression system protocol. KDM5A1-797 was cloned into a pFASTBAC HTA vector. Purified bacmid was transfected in Sf21 cells. Approximately 0.8 × 10^−5 cells per well of a six-well dish were allowed to attach in 2 ml of SF-900 II SFM media containing 50 U ml^−1 penicillin and 50 μg ml^−1 streptomycin. While cells attached, 8 μl of Cellfectin II reagent (Invitrogen) in 100 μl of unsupplemented Grace’s medium was mixed with ~2–5 μg of bacmid in 100 μl of unsupplemented Grace’s medium and incubated for 15–30 min at 25 °C. Once cells were attached, media was removed and cells were washed with 2 ml of Grace’s unsupplemented media. The bacmid DNA:Cellfectin mixture was then diluted to 1 ml with Grace’s unsupplemented media and added to the well. Cells with bacmid:Cellfectin II mixture were incubated for 5 h at 27 °C. After 5 h of incubation, bacmid:Cellfectin mixture was removed and replaced with 2 ml of SF-900 II SFM 50 U ml^−1 penicillin and 50 μg ml^−1 streptomycin. […]
Reactions were performed in 50 mM HEPES, 50 mM KCl, 1 mM α-ketoglutarate, 50 μM Fe(NH4)2(SO4)2, 2 mM ascorbic acid, 2 mM NAD^+ and 0.05 U FDH (Sigma) at pH 7.5 at room temperature. […] An NADH standard curve was used to convert fluorescence to concentration of product formed. […] Michaelis–Menten parameters were determined using Graphpad Prism.

Row | Binder | Kd [1] | Kd [2] | Km [3]
1 | KDM5A_(1-797) (enzyme) MAGVGPGGYAAEFVPPPECPVFEPSWEEFTDPLSFIGRIRPLAEKTGICKIRPPKDWQPPFACEVKSFRFTPRVQRLNELEAMTRVRLDFLDQLAKFWELQGSTLKIPVVERKILDLYALSKIVASKGGFEMVTKEKKWSKVGSRLGYLPGKGTGSLLKSHYERILYPYELFQSGVSLMGVQMPNLDLKEKVEPEVLSTDTQTSPEPGTRMNILPKRTRRVKTQSESGDVSRNTELKKLQIFGAGPKVVGLAMGTKDKEDEVTRRRKVTNRSDAFNMQMRQRKGTLSVNFVDLYVCMFCGRGNNEDKLLLCDGCDDSYHTFCLIPPLPDVPKGDWRCPKCVAEECSKPREAFGFEQAVREYTLQSFGEMADNFKSDYFNMPVHMVPTELVEKEFWRLVSSIEEDVIVEYGADISSKDFGSGFPVKDGRRKILPEEEEYALSGWNLNNMPVLEQSVLAHINVDISGMKVPWLYVGMCFSSFCWHIEDHWSYSINYLHWGEPKTWYGVPSHAAEQLEEVMRELAPELFESQPDLLHQLVTIMNPNVLMEHGVPVYRTNQCAGEFVVTFPRAYHSGFNQGYNFAEAVNFCTADWLPIGRQCVNHYRRLRRHCVFSHEELIFKMAADPECLDVGLAAMVCKELTLMTEEETRLRESVVQMGVLMSEEEVFELVPDDERQCSACRTTCFLSALTCSCNPERLVCLYHPTDLCPCPMQKKCLRYRYPLEDLPSLLYGVKVRAQSYDTWVSRVTEALSANFNHKKDLIELRVMLEDAEDRKYPENDLFRKLRDAVKEAETCASV | 62.5 µM | 56.9 µM | –
2 | KDM5A1-797 (Homo sapiens) (protein, KDM5A1-797 was cloned into a pFASTBAC HTA vector; His (N, cleaved yes); made in house; host or cells: Sf21 insect cells (baculovirus)) MAGVGPGGYAAEFVPPPECPVFEPSWEEFTDPLSFIGRIRPLAEKTGICKIRPPKDWQPPFACEVKSFRFTPRVQRLNELEAMTRVRLDFLDQLAKFWELQGSTLKIPVVERKILDLYALSKIVASKGGFEMVTKEKKWSKVGSRLGYLPGKGTGSLLKSHYERILYPYELFQSGVSLMGVQMPNLDLKEKVEPEVLSTDTQTSPEPGTRMNILPKRTRRVKTQSESGDVSRNTELKKLQIFGAGPKVVGLAMGTKDKEDEVTRRRKVTNRSDAFNMQMRQRKGTLSVNFVDLYVCMFCGRGNNEDKLLLCDGCDDSYHTFCLIPPLPDVPKGDWRCPKCVAEECSKPREAFGFEQAVREYTLQSFGEMADNFKSDYFNMPVHMVPTELVEKEFWRLVSSIEEDVIVEYGADISSKDFGSGFPVKDGRRKILPEEEEYALSGWNLNNMPVLEQSVLAHINVDISGMKVPWLYVGMCFSSFCWHIEDHWSYSINYLHWGEPKTWYGVPSHAAEQLEEVMRELAPELFESQPDLLHQLVTIMNPNVLMEHGVPVYRTNQCAGEFVVTFPRAYHSGFNQGYNFAEAVNFCTADWLPIGRQCVNHYRRLRRHCVFSHEELIFKMAADPECLDVGLAAMVCKELTLMTEEETRLRESVVQMGVLMSEEEVFELVPDDERQCSACRTTCFLSALTCSCNPERLVCLYHPTDLCPCPMQKKCLRYRYPLEDLPSLLYGVKVRAQSYDTWVSRVTEALSANFNHKKDLIELRVMLEDAEDRKYPENDLFRKLRDAVKEAETCASV | – | – | 770 µM
